Data: PMC10442227, “Mechanistic and evolutionary insights into a type V-M CRISPR–Cas effector enzyme”

Columns and labels:
Cas12m2 (SPR prep) = target: T1, Cas12m2 (SPR prep) (UniProt PDB:8HIO_2 1-596); assay: SPR; 5 mM Mg2+; two-state fit, 8-63 nM RNP; SPR: 20 mM HEPES pH 7.8, 150 mM KCl, 10% glycerol, 5 mM MgCl2, 1 mM DTT, 0.05% Tween-20, 25 C; cryo-EM: 20 mM HEPES-NaOH pH 7.6, 50 mM NaCl, 2 mM MgCl2, 10 uM ZnCl2; conditions: protein: recombinant; tags: pML-1B vector, nickel-purified (His); label: 5'-biotin on DNA top strand; guide pairs with DNA top strand; DNA blunt 50-bp duplex
T1 sequence: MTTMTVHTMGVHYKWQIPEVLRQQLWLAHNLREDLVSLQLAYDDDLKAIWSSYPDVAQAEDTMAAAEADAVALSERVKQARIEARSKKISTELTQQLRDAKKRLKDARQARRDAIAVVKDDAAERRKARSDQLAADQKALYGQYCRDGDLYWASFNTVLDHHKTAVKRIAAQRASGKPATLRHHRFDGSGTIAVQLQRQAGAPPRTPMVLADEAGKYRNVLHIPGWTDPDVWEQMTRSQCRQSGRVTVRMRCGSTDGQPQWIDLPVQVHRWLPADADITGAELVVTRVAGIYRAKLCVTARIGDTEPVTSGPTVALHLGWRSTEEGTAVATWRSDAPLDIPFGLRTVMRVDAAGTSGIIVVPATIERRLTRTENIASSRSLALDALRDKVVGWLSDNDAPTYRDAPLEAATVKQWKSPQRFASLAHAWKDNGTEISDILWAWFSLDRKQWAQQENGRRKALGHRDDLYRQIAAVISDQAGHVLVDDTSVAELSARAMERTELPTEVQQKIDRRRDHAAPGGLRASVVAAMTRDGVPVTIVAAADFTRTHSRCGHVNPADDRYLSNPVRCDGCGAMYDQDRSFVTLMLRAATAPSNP

Cas12m2 = target: T2, Cas12m2 (UniProt PDB:8HIO_2 1-596); assay: cryo-EM; full R-loop state (state I), 17-bp heteroduplex; Mg2+, Zn2+; SPR: 20 mM HEPES pH 7.8, 150 mM KCl, 10% glycerol, 5 mM MgCl2, 1 mM DTT, 0.05% Tween-20, 25 C; cryo-EM: 20 mM HEPES-NaOH pH 7.6, 50 mM NaCl, 2 mM MgCl2, 10 uM ZnCl2; conditions: protein: recombinant; tags: N-terminal His6; crRNA guide pairs with S4 (17 bp, R-loop); S4/S5 blunt 36-bp duplex
T2 sequence: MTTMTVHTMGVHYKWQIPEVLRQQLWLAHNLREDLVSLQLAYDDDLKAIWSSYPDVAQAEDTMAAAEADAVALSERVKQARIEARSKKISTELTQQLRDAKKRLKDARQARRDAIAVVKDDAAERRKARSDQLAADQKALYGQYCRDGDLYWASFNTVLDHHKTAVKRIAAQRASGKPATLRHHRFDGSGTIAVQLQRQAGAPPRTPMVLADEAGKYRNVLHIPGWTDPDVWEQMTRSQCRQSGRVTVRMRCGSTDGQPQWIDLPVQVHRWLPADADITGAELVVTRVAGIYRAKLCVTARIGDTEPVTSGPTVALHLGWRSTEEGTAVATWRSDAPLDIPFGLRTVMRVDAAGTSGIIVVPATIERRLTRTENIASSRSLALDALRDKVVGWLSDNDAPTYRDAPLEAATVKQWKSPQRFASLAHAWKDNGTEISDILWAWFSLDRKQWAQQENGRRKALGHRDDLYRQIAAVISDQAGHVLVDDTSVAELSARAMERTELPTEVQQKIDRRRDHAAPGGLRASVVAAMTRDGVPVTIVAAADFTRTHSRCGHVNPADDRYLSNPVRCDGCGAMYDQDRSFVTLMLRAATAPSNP

Cas12m2 (binary complex) = target: T3, Cas12m2 (binary complex) (UniProt PDB:8HIO_2 1-596); assay: cryo-EM; binary complex; SPR: 20 mM HEPES pH 7.8, 150 mM KCl, 10% glycerol, 5 mM MgCl2, 1 mM DTT, 0.05% Tween-20, 25 C; cryo-EM: 20 mM HEPES-NaOH pH 7.6, 50 mM NaCl, 2 mM MgCl2, 10 uM ZnCl2; conditions: protein: recombinant; tags: N-terminal His6; chain copies: 2; stem and pseudoknot scaffold
T3 sequence: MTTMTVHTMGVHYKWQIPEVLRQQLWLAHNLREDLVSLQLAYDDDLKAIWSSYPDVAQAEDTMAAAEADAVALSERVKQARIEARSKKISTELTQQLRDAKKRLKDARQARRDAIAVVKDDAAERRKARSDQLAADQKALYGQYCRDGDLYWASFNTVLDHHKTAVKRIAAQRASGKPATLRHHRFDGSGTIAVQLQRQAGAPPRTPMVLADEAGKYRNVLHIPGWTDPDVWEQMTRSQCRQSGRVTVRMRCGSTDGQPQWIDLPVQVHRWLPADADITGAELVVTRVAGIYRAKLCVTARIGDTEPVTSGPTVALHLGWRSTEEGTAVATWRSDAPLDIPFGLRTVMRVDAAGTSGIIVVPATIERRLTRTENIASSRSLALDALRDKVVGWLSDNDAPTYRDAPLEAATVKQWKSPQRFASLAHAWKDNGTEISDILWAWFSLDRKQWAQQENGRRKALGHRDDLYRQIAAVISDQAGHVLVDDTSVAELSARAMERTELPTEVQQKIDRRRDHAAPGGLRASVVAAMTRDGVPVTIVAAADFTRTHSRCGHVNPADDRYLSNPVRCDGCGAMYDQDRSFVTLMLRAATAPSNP

B1: PAM-SCNR RNA + 50-bp target dsDNA (mixed)
RNA: GUGUCAUAGCCCAGCUUGGCGGGCGAAGGCCAAGACGUCGAGUGCAAAACCUUUCG
DNA 1: CAGCTATAGTTCTCGAAAGGTTTTGCACTCGACTAAAGGACTCTATGACC
DNA 2: GGTCATAGAGTCCTTTAGTCGAGTGCAAAACCTTTCGAGAACTATAGCTG
- Kd (Cas12m2 (SPR prep)): ~2.7 nM

B2: crRNA (56 nt) + 36-bp target DNA (TTG PAM) (mixed)
RNA: GUGUCAUAGCCCAGCUUGGCGGGCGAAGGCCAAGACGGAGAUGAGGUGCGCGUGGC
DNA 1: GATGGTGCCACGCGCACCTCATCTCCCAAATAGACA
DNA 2: TGTCTATTTGGGAGATGAGGTGCGCGTGGCACCATC
- binding result (Cas12m2): binds

B3: crRNA (56 nt) (structured_RNA)
RNA: GUGUCAUAGCCCAGCUUGGCGGGCGAAGGCCAAGACGGAGAUGAGGUGCGCGUGGC
- binding result (Cas12m2 (binary complex)): binds
